The supplement of paper PMC9170038

System: K4 kissing-loop RNA reporter
Test: apparent KD of K4 kissing-loop reporter; higher = weaker reporter binding
Details: Eterna round: R107
Protocol: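 RNA-MaP round R107: designed RNA switches with theophylline, tryptophan, arginine or FMN aptamers are transcribed on-chip within common flanks. They are titrated with a labelled K4 kissing-loop RNA reporter in RNA-MaP buffer (100 mM Tris pH 7.5, 80 mM KCl, 4 mM MgCl2), without ligand or with the indicated ligand. Median apparent KD per design.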

[1] = input ligand: theophylline 20 uM
[2] = input ligand: tryptophan 2.4 mM
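Further: bound reporter read as fluorescence of individual clusters on recovered sequencing chips by microscopy, with normalized cluster intensities fitted with a binding model.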

Row | Sequence | apparent KD of K4 kissing-loop reporter (input ligand: FMN 200 uM) | apparent KD of K4 kissing-loop reporter (input ligand: arginine 13.2 mM) | apparent KD of K4 kissing-loop reporter (input ligand: none) | apparent KD of K4 kissing-loop reporter [1] | apparent KD of K4 kissing-loop reporter [2]
1 | UGUCAUUGGUCGGCCGCCACUUUAUAUGGAGUGAUGUUUUGUAAAUUGUGUUGAAAGGUGUGGUAAAGGACCGGGACCGAUGACU [FiskerMod 26 - Jieux - Same State - Tryptophan B] | 1030 nM | 637 nM | 931 nM | 727 nM | 651 nM
2 | AACGUUUUGAGAAGGAGCGCGUUAAGCAGUGAUGUUGCUUUAUUUUAUCAAAUACAUAUAUCGCAGGUAGGUCGCUCAAUACGUA [JR_Nu_SSArginiB_Sub026] | 304 nM | 218 nM | 253 nM | 283 nM | 230 nM
3 | UGUCUACCGGGAAGGAGCGUGAAUGAUAAUGGAUAUAGUGAUGUUAUAUAUACGAACGAAUCGCAGGUAGGUCGCCCGGAUCCCU [SSArgB.W] | 431 nM | 419 nM | 606 nM | 431 nM | 481 nM
4 | AUUCCCACUUAAGGAUAUCAAGGAGUGAUGUUCCAAAUGGUCCACGUCGCGGCUCUCCGGGCACAAUGAGAAGGUAAAGCUGGGU [theeternabot_exclusion_KL_FMN_B_43] | 278 nM | 275 nM | 276 nM | 370 nM | 210 nM
5 | GCAUGGAUCGCAGGAUAUAGAUCCGUGAGUGAAUUCUUGCCAGUGAGGAGUGAUGUUCCUCAUGGGCUAGAAGGGCGAUCCAUGC | 140 nM | 80.8 nM | 89.4 nM | 85.9 nM | 83.5 nM
6 | GUCUGCGUCUCGGCCGCCACUCACUAGUGAUGUUAGUAAGGAGCGACUAGAGAAGUCCAGUUAAUGAGGACCGGGAGAAGCUCUU [Exclusion Tryptophan B GF 3] | 122 nM | 133 nM | 137 nM | 106 nM | 117 nM
7 | AGGUUUUGAUUAGGAUAUGCACUGACGAUGAGAAUAUAGUGAUGUUAUAUACUACGAAUUAGUAGAGUAGAAGGGAUUGAGGUUU [SSFMNB.Z] | 568 nM | 338 nM | 414 nM | 459 nM | 335 nM
8 | GGAUAGGAUAGAGGAUAUGGAGAACACAAAAGUGACUUGUUGUGUUUAUCCAUAGGGAGUGAUGUUCCAGAAGGCUGUCCUAUCG [MatMod 24 - Jieux - Exclusion - FMN B] | 296 nM | 178 nM | 201 nM | 183 nM | 156 nM
9 | UGAUAGGACAGAAGGAGCGGAAGUGAUGUUUCCUAAAGGAUAAAGGUGUCAAAGACACCCUUCCAGGUAGGUCGCUGUCCUAUCU [ArgBX 16 #Palindromic #SwitchBubble #StaticStem] | 549 nM | 923 nM | 579 nM | 532 nM | 566 nM
10 | CCCUAAAUAUGCAGUGAUGUUGCAACUGAUACCAGUAUCGAAAGAUACCCUUGGCAGCGGAAAACCGCUACGUAAUUUAAAAGGG [Ex Theophylline A K4 19] | 243 nM | 327 nM | 356 nM | 385 nM | 243 nM
11 | GGGAGUAGUGCGGCCGCCACUGUGAAAGUAGAAGAAUAUAGUGAUGUUAUAUAGGAAUAAAAGAAUAGGACCGGGCAUUAGAUUU [SSTRyptB.V] | 190 nM | 215 nM | 212 nM | 249 nM | 168 nM
12 | ACACUUACACAUGAUACCAGAAUUCUACCGUAAAUAGUAAGUGAUGUUUGCUAACGGCUUUUCCCUUGGCAGCAUGAUCGGUAUU [theeternabot_sameState_KL_Theo_B_43] | 201 nM | 121 nM | 178 nM | 242 nM | 149 nM
13 | CGUUUAUAGCAGGAUACCAGUACCGAUAAAGUACGUUAAUAGUAGAGUGAUGUUCUAAAGUACCCUUGGCAGCUUAGAGUGAGUG [ExTheophylB.P] | 95.3 nM | 142 nM | 111 nM | 162 nM | 74.5 nM
14 | GACAGCCGGUCGGCCGCCACUUGGAGUGAUGUUCCGCGCGGCGGGCGCCGGAGGGCGUUAAGCCCAAGGACCGGGACCGGUAACG [Celeso] | 114 nM | 103 nM | 92.9 nM | 114 nM | 104 nM
